Measurements: paper PMC8242953, “Immune Tolerance-Adjusted Personalized Immunogenicity Prediction for Pompe Disease” (Frontiers in Immunology, 2021)

Assays:
[1] = Anti-rhGAA IgG antibody (ADA) titers in IOPD subjects on ERT; type: in vivo, human
Procedure: Children with a confirmed diagnosis of IOPD were enrolled in Duke University Medical Centers. IOPD was defined as the presence of hypertrophic cardiomyopathy in the first year of life. […] Clinical data including CRIM status, GAA variants, GAA enzyme activity, age at ERT initiation, and longitudinal anti-rhGAA IgG antibody titers were extracted from medical records ( Supplementary Table S1 ).
ADA titers were determined by Sanofi Genzyme using enzyme-linked immunosorbent assays (ELISA) and confirmed using radioimmunoprecipitation as described previously ([6]). Subjects whose ADA titers repeatedly exceed 51,200 after more than 6-months on rhGAA were classified as high and sustained antibody titers (HSAT) ([5], [11]). Subjects whose ADA titers fell between 12,800 and 51,200 within the first year of ERT were classified as sustained intermediate titers (SIT). Based on ADA titers, subjects were stratified into two groups; 1) High ADA, subjects who developed ADA titers in HSAT or SIT range (≥12,800) and 2) Low ADA, subjects who maintained ADA titers of ≤6,400.

[2] = CRIM-positive IOPD children on ERT; ref [5]; cited from earlier work
Description: The development of ADA to rhGAA is influenced by the presence or absence of endogenous GAA, defined as cross-reactive immunologic material (CRIM). Individuals who are CRIM-negative have a complete absence of GAA and are at the highest risk of ADA, whereas those who are CRIM-positive may be more immune tolerant to ERT, due to prior exposure to endogenous GAA ([4]). However, one-third of CRIM-positive IOPD children still develop high and sustained or intermediate ADA titers, putting them at risk for clinical decline similar to CRIM-negative individuals ([5]). All CRIM-negative patients develop H ...

alglucosidase alfa [rhGAA]
subjects who developed high ADA titers ([1]; 19 of 48 CRIM-positive IOPD subjects on rhGAA ERT without ITI, high ADA = HSAT or SIT, titers ≥12,800): 40% | subjects who developed low ADA titers ([1]; 29 of 48 CRIM-positive IOPD subjects on rhGAA ERT without ITI, low ADA = titers ≤6,400): 60% | share of CRIM-positive IOPD children who develop high and sustained or intermediate ADA titers [2]: one-third
